Experimental data published in paper doi:10.1101/2022.02.28.482149 (bioRxiv, 2022).

Target: the molecule itself
Assay: crystal structure

B1: MaFRSA (Methanomethylophilus alvus pyrrolysyl-tRNA synthetase, MaPylRS N166A:V168A) (enzyme)
chain: MTVKYTDAQIQRLREYGNGTYEQKVFEDLASRDAAFSKEMSVASTDNEKKIKGMIANPSRHGLTQLMNDIADALVAEGFIEVRTPIFISKDALARMTITEDKPLFKQVFWIDEKRALRPMLAPNLYSVMRDLRDHTDGPVKIFEMGSCFRKESHSGMHLEEFTMLALADMGPRGDATEVLKNYISVVMKAAGLPDYDLVQEESDVYKETIDVEINGQEVCSAAVGPHYLDAAHDVHEPWSGAGFGLERLLTIREKYSTVKKGGASISYLNGAKIN
B1: binds.
